Target: mouse Flt3 receptor on Baflt cells (Ba/F3 cells stably transfected with Flt3 cDNA) (mouse) (UniProt Q00342)
Assay: cell-based or functional assay

UniProt Q00342, sequence (Q00342 28-1000): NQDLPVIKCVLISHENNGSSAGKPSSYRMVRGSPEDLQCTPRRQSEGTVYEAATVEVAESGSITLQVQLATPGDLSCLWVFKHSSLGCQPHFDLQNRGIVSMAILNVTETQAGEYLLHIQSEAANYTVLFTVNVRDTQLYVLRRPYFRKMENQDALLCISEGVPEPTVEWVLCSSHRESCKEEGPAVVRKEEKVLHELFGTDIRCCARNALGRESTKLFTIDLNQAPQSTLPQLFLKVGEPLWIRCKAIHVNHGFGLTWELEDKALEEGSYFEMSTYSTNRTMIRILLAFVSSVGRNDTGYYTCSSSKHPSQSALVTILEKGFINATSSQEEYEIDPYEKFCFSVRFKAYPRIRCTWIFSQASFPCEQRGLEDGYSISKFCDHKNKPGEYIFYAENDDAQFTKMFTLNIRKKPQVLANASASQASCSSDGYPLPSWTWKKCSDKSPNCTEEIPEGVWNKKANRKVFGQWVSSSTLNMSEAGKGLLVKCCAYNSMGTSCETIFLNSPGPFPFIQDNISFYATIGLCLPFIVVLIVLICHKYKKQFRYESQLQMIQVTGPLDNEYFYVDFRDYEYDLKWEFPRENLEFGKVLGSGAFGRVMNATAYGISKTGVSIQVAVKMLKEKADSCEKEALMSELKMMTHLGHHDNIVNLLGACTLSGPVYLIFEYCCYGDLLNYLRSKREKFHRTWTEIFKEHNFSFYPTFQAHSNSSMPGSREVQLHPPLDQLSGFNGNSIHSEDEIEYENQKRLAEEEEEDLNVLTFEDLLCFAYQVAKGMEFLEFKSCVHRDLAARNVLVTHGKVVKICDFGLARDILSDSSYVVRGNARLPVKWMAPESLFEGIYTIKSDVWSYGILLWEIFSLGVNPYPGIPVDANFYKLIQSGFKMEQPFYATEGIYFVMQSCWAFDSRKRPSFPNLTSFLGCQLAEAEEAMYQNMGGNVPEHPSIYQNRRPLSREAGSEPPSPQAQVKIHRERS

For “purified native mouse Flt3 ligand (naturally occurring soluble form from TA4 thymic stromal cell conditioned medium) (from UniProt P49772 27-189)”, the specific activity in the bioassay (MTT assay, Baflt minus Ba/F3) was 3e+06 units/mg and the specific activity on the Baf assay (MTT survival assay, Baflt minus Baf signal) (Units per milligram) was 1e+07.

Source: patent publication US7537932
